Assay results reported in US20240083959A1.

Molecular target: T1, recombinant human LPHN2 lectin-olfactomedin-like-GAIN/GPS domain, residues F26-R796 (human), O95490
T1 chain: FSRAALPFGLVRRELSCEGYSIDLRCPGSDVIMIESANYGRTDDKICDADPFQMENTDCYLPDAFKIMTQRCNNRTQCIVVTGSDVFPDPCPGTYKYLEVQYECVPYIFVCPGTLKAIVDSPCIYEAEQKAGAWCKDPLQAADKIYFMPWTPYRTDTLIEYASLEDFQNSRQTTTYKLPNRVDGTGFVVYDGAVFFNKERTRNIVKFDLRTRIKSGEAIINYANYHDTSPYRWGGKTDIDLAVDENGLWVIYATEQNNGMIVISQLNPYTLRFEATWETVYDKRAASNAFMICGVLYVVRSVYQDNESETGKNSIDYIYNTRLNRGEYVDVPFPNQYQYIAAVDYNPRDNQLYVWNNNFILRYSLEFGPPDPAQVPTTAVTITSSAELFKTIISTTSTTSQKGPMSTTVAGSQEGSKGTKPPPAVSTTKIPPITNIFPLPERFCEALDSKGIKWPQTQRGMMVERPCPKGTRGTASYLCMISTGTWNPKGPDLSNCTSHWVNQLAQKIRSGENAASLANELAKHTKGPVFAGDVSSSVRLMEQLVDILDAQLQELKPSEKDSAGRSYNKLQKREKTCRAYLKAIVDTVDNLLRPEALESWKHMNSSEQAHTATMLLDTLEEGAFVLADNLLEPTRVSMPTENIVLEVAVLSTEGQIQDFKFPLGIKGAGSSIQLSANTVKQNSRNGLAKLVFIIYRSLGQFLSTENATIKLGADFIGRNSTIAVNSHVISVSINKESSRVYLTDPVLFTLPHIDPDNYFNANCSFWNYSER
Experiment: solid-phase binding (ELISA)
Details: ligand; chains chain; N-linked glycans removed with PNGase F (sites N79, N186, N269, N325 on SEQ ID NO: 1); remark: other sources report otherwise

B1: deglycosylated LRG1 (LRG1 treated with PNGase F), P02750 36-347 (protein)
chain: VTLSPKDCQVFRSDHGSSISCQPPAEIPGYLPADTVHLAVEFFNLTHLPANLLQGASKLQELHLSSNGLESLSPEFLRPVPQLRVLDLTRNALTGLPPGLFQASATLDTLVLKENQLEVLEVSWLHGLKALGHLDLSGNRLRKLPPGLLANFTLLRTLDLGENQLETLPPDLLRGPLQLERLHLEGNKLQVLGKDLLLPQPDLRYLFLNGNKLARVAAGAFQGLRQLDMLDLSNNSLASVPEGLWASLGQPNWDMRDGFDISGNPWICDQNLSDLYRWLQAQKDKMFSQNDTRCAGPEAVKGQTLLAVAKSQ
Kd: 840 nM
